Residue numbers refer to the chain shown, from its start. Where two headings read alike, the source gives them in different places.
B1: huSP34.3.7 Fab-HF (Fab, V domains shown)
VH: EVQLVESGGGLVQPGGSLRLSCAASGFTFNTYAMNWVRQAPGKGLEWVGRIRSKYNNYATYYADSVKGRFTISRDDSKNSLYLQMNSLRTEDTAVYYCVRHGNFGHSYVSWFAYWGQGTLVTVSS
VL: QAVVTQEPSLTVSPGGTVTLTCRSSTGAVTTGHYANWVQQKPGQAPRGLIGGTNKRAPGVPARFSGSLLGGKAALTISGAQPEDEAEYYCALWYSNLWVFGGGTKLTVL
notes: also called HC3+LC7
B2: huSP34.3.8 Fab-HF (Fab, V domains shown)
VH: B1 VH
VL: B1 VL with R23G, L97R
notes: also called HC3+LC8
B3: huSP34.3.9 Fab-HF (Fab, V domains shown)
VH: B1 VH
VL: B1 VL with E7P, R23G, L69S
notes: also called HC3+LC9
B4: huSP34.3.10 Fab-HF (Fab, V domains shown)
VH: B1 VH
VL: B1 VL with E7P, R23G, L69S, L97R
notes: also called HC3+LC10
B5: huSP34.11.7 Fab-HF (Fab, V domains shown)
VH: B1 VH with N30S, D64A
VL: B1 VL
notes: also called HC11+LC7
B6: huSP34.11.8 Fab-HF (Fab, V domains shown)
VH: B1 VH with N30S, D64A
VL: B1 VL with R23G, L97R
notes: also called HC11+LC8
B7: huSP34.11.9 Fab-HF (Fab, V domains shown)
VH: B1 VH with N30S, D64A
VL: B1 VL with E7P, R23G, L69S
notes: also called HC11+LC9
B8: huSP34.11.10 Fab-HF (Fab, V domains shown)
VH: B1 VH with N30S, D64A
VL: B1 VL with E7P, R23G, L69S, L97R
notes: also called HC11+LC10
B9: huSP34.12.7 Fab-HF (Fab, V domains shown)
VH: B1 VH with N30S, G49A, D64A
VL: B1 VL
notes: also called HC12+LC7
B10: huSP34.12.8 Fab-HF (Fab, V domains shown)
VH: B1 VH with N30S, G49A, D64A
VL: B1 VL with R23G, L97R
notes: also called HC12+LC8
B11: huSP34.12.9 Fab-HF (Fab, V domains shown)
VH: B1 VH with N30S, G49A, D64A
VL: B1 VL with E7P, R23G, L69S
notes: also called HC12+LC9
B12: huSP34.12.10 Fab-HF (Fab, V domains shown)
VH: B1 VH with N30S, G49A, D64A
VL: B1 VL with E7P, R23G, L69S, L97R
notes: also called HC12+LC10
B13: huSP34.13.7 Fab-HF (Fab, V domains shown)
VH: B1 VH with N30S, D64A, S80T
VL: B1 VL
notes: also called HC13+LC7
B14: huSP34.13.8 Fab-HF (Fab, V domains shown)
VH: B1 VH with N30S, D64A, S80T
VL: B1 VL with R23G, L97R
notes: also called HC13+LC8
B15: huSP34.13.9 Fab-HF (Fab, V domains shown)
VH: B1 VH with N30S, D64A, S80T
VL: B1 VL with E7P, R23G, L69S
notes: also called HC13+LC9
B16: huSP34.13.10 Fab-HF (Fab, V domains shown)
VH: B1 VH with N30S, D64A, S80T
VL: B1 VL with E7P, R23G, L69S, L97R
notes: also called HC13+LC10
B17: mSP34 Fab-HF v2 (Fab, V domains shown)
VH: EVKLLESGGGLVQPKGSLKLSCAASGFTFNTYAMNWVRQAPGKGLEWVARIRSKYNNYATYYADSVKDRFTISRDDSQSILYLQMNNLKTEDTAMYYCVRHGNFGNSYVSWFAYWGQGTLVTVSA
VL: QAVVTQESALTTSPGETVTLTCRSSTGAVTTSNYANWVQEKPDHLFTGLIGGTNKRAPGVPARFSGSLIGDKAALTITGAQTEDEAIYFCALWYSNLWVFGGGTKLTVLG
B18: huSP34.35.15 Fab-HF (Fab, V domains shown)
VH: B1 VH with T31D, I51T, D64A, R89K, V95M
VL: B1 VL with E7P, R23G, L69S, N96A, L97R
notes: also called HC35+LC15
B19: huSP34.35.6 Fab-HF (Fab, V domains shown)
VH: B1 VH with T31D, I51T, D64A, R89K, V95M
VL: B1 VL with E7P, R23G, N54S, K55N, L69S, N96A, L97R
notes: also called HC35+LC6
B20: huSP34.6.1 Fab-HF (Fab, V domains shown)
VH: B1 VH with N30S, D76N, S80T, T90A, V95M, H106N, Y114V
VL: B1 VL with G32S, H33N, G59W, V60T, L69I, G71D, I77L
B21: huSP34.6.2 Fab-HF (Fab, V domains shown)
VH: B1 VH with N30S, D76N, S80T, T90A, V95M, H106N, Y114V
VL: B1 VL with R23G, G32S, H33N, N54S, K55N, G59W, V60T, I77L
B22: huSP34.6.4 Fab-HF (Fab, V domains shown)
VH: B1 VH with N30S, D76N, S80T, T90A, V95M, H106N, Y114V
VL: B1 VL with R23G, G32S, N54S, G59W, V60T, I77L, N96A
B23: huSP34.6.5 Fab-HF (Fab, V domains shown)
VH: B1 VH with N30S, D76N, S80T, T90A, V95M, H106N, Y114V
VL: B1 VL with R23G, N54S, K55N, G59W, V60T, I77L, N96A, L97R
B24: huSP34.7.1 Fab-HF (Fab, V domains shown)
VH: B1 VH with N30S, T31D, I51T, D64A, R89K, H106N, Y114V
VL: B1 VL with G32S, H33N, G59W, V60T, L69I, G71D, I77L
B25: huSP34.8.1 Fab-HF (Fab, V domains shown)
VH: B1 VH with N30S, T31D, I51T, D64A, R89K, Y114V
VL: B1 VL with G32S, H33N, G59W, V60T, L69I, G71D, I77L
B26: huSP34.8.2 Fab-HF (Fab, V domains shown)
VH: B1 VH with N30S, T31D, I51T, D64A, R89K, Y114V
VL: B1 VL with R23G, G32S, H33N, N54S, K55N, G59W, V60T, I77L
B27: huSP34.8.4 Fab-HF (Fab, V domains shown)
VH: B1 VH with N30S, T31D, I51T, D64A, R89K, Y114V
VL: B1 VL with R23G, G32S, N54S, G59W, V60T, I77L, N96A
B28: huSP34.8.5 Fab-HF (Fab, V domains shown)
VH: B1 VH with N30S, T31D, I51T, D64A, R89K, Y114V
VL: B1 VL with R23G, N54S, K55N, G59W, V60T, I77L, N96A, L97R
B29: huSP34.8.6 Fab-HF (Fab, V domains shown)
VH: B1 VH with N30S, T31D, I51T, D64A, R89K, Y114V
VL: B1 VL with E7P, R23G, N54S, K55N, L69S, N96A, L97R
B30: huSP34.9.1 Fab-HF (Fab, V domains shown)
VH: B1 VH with N30S, T31D, I51T, N57S, D64A, R89K, H106N, Y114V
VL: B1 VL with G32S, H33N, G59W, V60T, L69I, G71D, I77L
B31: huSP34.9.2 Fab-HF (Fab, V domains shown)
VH: B1 VH with N30S, T31D, I51T, N57S, D64A, R89K, H106N, Y114V
VL: B1 VL with R23G, G32S, H33N, N54S, K55N, G59W, V60T, I77L
B32: huSP34.9.4 Fab-HF (Fab, V domains shown)
VH: B1 VH with N30S, T31D, I51T, N57S, D64A, R89K, H106N, Y114V
VL: B1 VL with R23G, G32S, N54S, G59W, V60T, I77L, N96A
B33: huSP34.9.5 Fab-HF (Fab, V domains shown)
VH: B1 VH with N30S, T31D, I51T, N57S, D64A, R89K, H106N, Y114V
VL: B1 VL with R23G, N54S, K55N, G59W, V60T, I77L, N96A, L97R
B34: huSP34.10.1 Fab-HF (Fab, V domains shown)
VH: B1 VH with N30S, T31D, I51T, N57S, D64A, R89K, Y114V
VL: B1 VL with G32S, H33N, G59W, V60T, L69I, G71D, I77L
B35: huSP34.10.2 Fab-HF (Fab, V domains shown)
VH: B1 VH with N30S, T31D, I51T, N57S, D64A, R89K, Y114V
VL: B1 VL with R23G, G32S, H33N, N54S, K55N, G59W, V60T, I77L
B36: huSP34.10.4 Fab-HF (Fab, V domains shown)
VH: B1 VH with N30S, T31D, I51T, N57S, D64A, R89K, Y114V
VL: B1 VL with R23G, G32S, N54S, G59W, V60T, I77L, N96A
B37: huSP34.10.5 Fab-HF (Fab, V domains shown)
VH: B1 VH with N30S, T31D, I51T, N57S, D64A, R89K, Y114V
VL: B1 VL with R23G, N54S, K55N, G59W, V60T, I77L, N96A, L97R
B38: huSP34.6.6 Fab-HF (Fab, V domains shown)
VH: B1 VH with N30S, D76N, S80T, T90A, V95M, H106N, Y114V
VL: B1 VL with E7P, R23G, N54S, K55N, L69S, N96A, L97R

Key:
[1] = target: T1, biotinylated CD3 epsilon:delta heterodimer protein (Amsbio AMS.CDD-H52WO) (Homo sapiens (Human), UniProt P07766 23-126; P04234 22-105); assay: BLI (Octet), CD3 on SA sensor, Fab analyte
T1 construct: also called CD3 heterodimer
Experimental: (§1) The CD3 binding kinetics of the purified huSP34 Fabs were determined using OctetRed384 (Pall ForteBio, CA) biolayer interferometry (BLI). […] Streptavidin (SA) coated biosensors tips (Pall ForteBio, CA) were used to capture biotinylated CD3 epsilon: delta heterodimer and typical immobilization levels captured on the SA sensors were 1 nm which approximately translates to 300 ng/ml of captured protein. For kinetic measurements biosensors were first pre-wetted with assay buffer for 10 minutes to remove protective sucrose coating followed by the recommended regeneration conditions for standardization of the biosensor surface for the experiment. In order to load the biosensors with antigen, 300 ng/ml of biotinylated CD3 epsilon: delta heterodimer protein (Amsbio AMS.CDD-H52WO) was immobilized on the SA sensor for 900 seconds. The CD3 loaded biosensors were then blocked with 20 ug/ml biocytin (sigma) for 200 seconds and then dipped into assay buffer containing wells for 200 seconds to remove any non-specific protein or unbound CD3 heterodimer.
(§2) CD3 loaded and biocytin blocked biosensors were then transferred into fresh assay buffer for 200 seconds to collect a baseline read. Kinetic measurements for anti-CD3 Fab and bispecific antibody binding were performed by dipping the CD3-coated biosensors into wells containing multiple concentrations of Fab or Ab (0-300 nM) for 100 seconds followed by a 300 second dissociation time by transferring the biosensors into assay buffer containing wells. The CD3 loaded sensors were then regenerated for the next kinetic measurement. Biosensors were generated by removing bound Fabs or Ab from immobilized CD3 on SA biosensors. Regeneration conditions used consisted of 3 cycles of 5 seconds of dipping the biosensors in Regeneration Buffer (10 mM Glycine HCl pH 1.5) followed by Assay Buffer (10 mM sodium phosphate pH 7.4, 140 mM Sodium Chloride, 0.005% Tween20 with 0.2% BSA).

[2] = target: T1, biotinylated CD3 epsilon:delta …; assay: BLI (Octet), CD3 on SA sensor, Fab analyte; remark: listed apart in the source
Experimental: as §1, §2

[3] = target: T2, CD3 expressed on cell-surface of primary human T cells (human, UniProt P07766 23-207; P04234 22-171); assay: flow cytometry competition vs murine SP34-AF488 on human T cells, n = 1
T2 construct: also called cell-surface CD3; human CD3
Experimental: Binding of humanized SP34 Fab variants to CD3 expressed on cell-surface of primary human T cells was evaluated in a flow cytometry-based competition assay.

Binder	Kd [1] [nM]	koff [1] [s⁻¹]	kon [1] [M⁻¹ s⁻¹]	IC50 [3] [µg/mL]	further results
B1	5.6	0.00168	323000	–	–
B2	4.4	0.00113	255000	–	Kd [2]: 1.9 nM; koff [2]: 0.00024 s⁻¹; kon [2]: 131000 M⁻¹ s⁻¹
B3	3.5	0.00221	632000	–	–
B4	2	0.00137	683000	–	Kd [2]: 2.3 nM; koff [2]: 0.000235 s⁻¹; kon [2]: 142000 M⁻¹ s⁻¹
B5	3.6	0.00212	613000	–	–
B6	2.8	0.00165	610000	–	–
B7	3.4	0.00284	898000	–	–
B8	2.8	0.00192	697000	–	–
B9	2.7	0.00244	966000	–	–
B10	3.4	0.00166	493000	–	–
B11	3.2	0.00335	1.04e+06	–	–
B12	4.2	0.00205	501000	–	–
B13	2.8	0.00275	1.01e+06	–	–
B14	2.5	0.00216	933000	–	–
B15	2.7	0.00361	1.38e+06	–	–
B16	1.7	0.00204	1.36e+06	–	–
B17	5.2	0.00266	532000	–	–
B18	–	–	–	–	Kd [2]: 303 nM; koff [2]: 0.17 s⁻¹; kon [2]: 560000 M⁻¹ s⁻¹
B19	–	–	–	–	Kd [2]: 178 nM; koff [2]: 0.187 s⁻¹; kon [2]: 1.55e+06 M⁻¹ s⁻¹

Binder	Kd [1] [nM]	koff [1] [s⁻¹]	kon [1] [M⁻¹ s⁻¹]	IC50 [3] [µg/mL]	further results
B20	–	–	–	> 20	–
B21	–	–	–	> 20	–
B22	–	–	–	> 20	–
B23	–	–	–	> 20	–
B24	–	–	–	> 20	–
B25	–	–	–	> 20	–
B26	–	–	–	> 20	–
B27	–	–	–	> 20	–
B28	–	–	–	> 20	–
B29	–	–	–	> 20	–
B30	–	–	–	> 20	–
B31	–	–	–	> 20	–
B32	–	–	–	> 20	–
B33	–	–	–	> 20	–
B34	–	–	–	> 20	–
B35	–	–	–	> 20	–
B36	–	–	–	> 20	–
B37	–	–	–	> 20	–
B38	–	–	–	> 20	–

Reference: US20230056252A1 (Gilead, published 2023)
